{"source": "patent US20240158537A1", "target": "IL-7 receptor (IL-7R), heterodimer of IL-7R alpha (CD127) and common gamma chain (CD132), on primary human T cells (human) (UniProt P16871)", "sequence (P16871 21-459, chain 1 of 2)": "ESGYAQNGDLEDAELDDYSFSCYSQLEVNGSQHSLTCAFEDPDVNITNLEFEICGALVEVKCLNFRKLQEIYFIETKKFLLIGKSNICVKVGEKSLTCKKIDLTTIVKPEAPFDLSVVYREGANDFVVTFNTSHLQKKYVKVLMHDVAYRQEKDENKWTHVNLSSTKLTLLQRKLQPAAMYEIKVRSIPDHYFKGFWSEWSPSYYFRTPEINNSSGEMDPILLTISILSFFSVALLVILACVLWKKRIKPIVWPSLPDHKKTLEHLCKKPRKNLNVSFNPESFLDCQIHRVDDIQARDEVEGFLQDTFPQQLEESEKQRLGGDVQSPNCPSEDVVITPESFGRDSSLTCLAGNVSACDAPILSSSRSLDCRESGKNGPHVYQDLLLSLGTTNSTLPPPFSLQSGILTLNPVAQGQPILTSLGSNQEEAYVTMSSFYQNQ", "sequence (P31785 23-369, chain 2 of 2, further chain)": "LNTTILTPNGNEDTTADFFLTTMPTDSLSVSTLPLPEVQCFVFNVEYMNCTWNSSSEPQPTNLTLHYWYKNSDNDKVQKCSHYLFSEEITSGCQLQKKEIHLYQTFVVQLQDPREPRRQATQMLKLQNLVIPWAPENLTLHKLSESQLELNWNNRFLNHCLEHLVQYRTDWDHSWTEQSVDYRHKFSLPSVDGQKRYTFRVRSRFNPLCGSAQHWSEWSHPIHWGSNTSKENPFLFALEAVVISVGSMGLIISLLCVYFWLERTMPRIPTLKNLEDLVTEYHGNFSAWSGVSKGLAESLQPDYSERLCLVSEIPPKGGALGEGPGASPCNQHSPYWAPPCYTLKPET", "assay": "cell-based or functional assay"}
{"substance": "Synthetic IL-7 of SEQ ID NO: 3 (M17Nle, M27Nle, N36Hse, M54Nle, M69Nle, D76Hse, E114Hse, M147Nle) (from UniProt P13232 26-177) (ligand)", "values": [{"measurement": "Avg EC50 (nM) (human pSTAT5), CD4 Memory", "value": 0.005, "unit": "nM"}, {"measurement": "Avg EC50 (nM) (human pSTAT5), CD4 Naive", "value": 0.005, "unit": "nM"}, {"measurement": "Avg EC50 (nM) (human pSTAT5), CD4 Treg", "value": 0.015, "unit": "nM"}, {"measurement": "Avg EC50 (nM) (human pSTAT5), CD8 Memory", "value": 0.006, "unit": "nM"}, {"measurement": "Avg EC50 (nM) (human pSTAT5), CD8 Naive", "value": 0.006, "unit": "nM"}]}
